Columns and labels:
[1] = target: T1, SARS-CoV-2 BA.1 RBD (residues 319–537, C-terminal AviTag and 8xHisTag) (SARS-CoV-2, Omicron BA.1 (B.1.1.529), strain); assay: BLI; details: both partners purified
T1 construct: also called Omicron lineage RBD

[2] = target: T2, Purified SARS-CoV-2 BA.2 RBD protein (AcroBiosystem) (SARS-CoV-2, Omicron BA.2, strain); assay: BLI; details: both partners purified
T2 construct: also called Omicron lineage RBD; source: bought: AcroBiosystem

[3] = target: T3, SARS-CoV-2 spike glycoprotein, Wuhan D614, Δ19 C-terminal truncation, on ExpiCHO-S cells (SARS-CoV-2 BetaCoV/Wuhan-Hu-1/2019 …, UniProt P0DTC2); assay: flow cytometry on cells; details: one partner purified
T3 construct: also called Wuhan-D614 spike; Wuhan-1 D614

[4] = target: T4, SARS-CoV-2 spike glycoprotein, Omicron BA.1, Δ19 C-terminal truncation, on ExpiCHO-S cells (SARS-CoV-2, Omicron BA.1 (B.1.1.529), strain); assay: flow cytometry on cells; details: one partner purified
T4 construct: also called BA.1 spike

[5] = target: T5, SARS-CoV-2 spike glycoprotein, Omicron BA.2, Δ19 C-terminal truncation, on ExpiCHO-S cells (SARS-CoV-2, Omicron BA.2, strain); assay: flow cytometry on cells; details: one partner purified
T5 construct: also called BA.2 spike

Binder | binding result [1] | binding result [2] | binding result [3] | binding result [4] | binding result [5]
AZD8895 Fab (Fab, V domains shown, also called tixagevimab; COV2-2196) VH: QMQLVQSGPEVKKPGTSVKVSCKASGFTFMSSAVQWVRQARGQRLEWIGWIVIGSGNTNYAQKFQERVTITRDMSTSTAYMELSSLRSEDTAVYYCAAPYCSSISCNDGFDIWGQGTMVTVSS VL: not shown | binds | binds |  |  | 
AZD1061 Fab (Fab, V domains shown, also called cilgavimab; COV2-2130) VH: EVQLVESGGGLVKPGGSLRLSCAASGFTFRDVWMSWVRQAPGKGLEWVGRIKSKIDGGTTDYAAPVKGRFTISRDDSKNTLYLQMNSLKTEDTAVYYCTTAGSYYYDTVGPGLPEGKFDYWGQGTLVTVSS VL: not shown | binds | binds |  |  | 
VIR-7831 (the clinical form of S309-LS) (antibody, V domains shown, also called sotrovimab; clinical lead variant of S309-LS; copies: 2 + 2) VH: not shown VL: EIVLTQSPGTLSLSPGERATLSCRASQTVSSTSLAWYQQKPGQAPRLLIYGASSRATGIPDRFSGSGSGTDFTLTISRLEPEDFAVYYCQQHDTSLTFGGGTKVEIK |  |  | binds | binds | binds
